The record followed here is the DeepSol protein solubility set.

This data set can be described thus: soluble on expression in E. coli; label from the status in PepcDB or PDB records.
For the sequence “MGSDKIHHHHHHMSMVQSAFPPRRNSVGVQVGSIRIGGGAPIVVQSMTNTDTEDEIATTVQVAQLARAGSELVRITVNTAEAARAVPGIRARLDDMGCQVPLIGDFHFNGHKLVTEYPGCARALAKYRINPGNVGHGKKRDEQFSILIEAACKYEKPVRIGVNWGSLDPELLARMMDENARSGDPRDASAVMYEALITSALQSAERAEEIGLGRDRIILSCKMSGVRDLITVYRALAARCDYALHLGLTEAGMGSKGIVASTAALSVLLLEGIGDTIRISLTPEPGGDRAREVVVAQEILQTTGLRAFVPLVAACPGCGRTTSTYFQELAESIQGYVREQMLVWREEYEGVENMTLAVMGCVVNGPGESKHANIGISLPGSGERPVAPVFVDGQKAVTLKGDNIAGEFRQIVDEYVQMKYPKKAVDAH”, the “soluble on expression in E. coli” value is recorded as “not soluble”.

Turning to “CTRAVYIGPDHMVVTGRTMDWKEDIMSNIYVFPRGIQRAGYNKENAVKWTSKYGSVIATGYDIGTCDGMNEKGLVASLLFLPESVFDRPGDTRPVMGISIWTQYVLDNFATVHEAVEELKKESFRIDAPHMPNGSASTLHLAITDETGNTAVLEYLDGNLSIHEGKEFQVMTNSPRYDYQLAINDYWKEVGGLQMLPGTNRSSDRFVRASFYIHAIPQTPDAKIAVPSVLSVMRNVSVPFGITTPDKPHISSTRWRSVSDQKNKIYYFESVMTPNLFWLDLKKIDFSPKAGIKKLPLTNGKIY”, the “soluble on expression in E. coli” value is recorded as “not soluble”.

With “MGSDKIHHHHHHMTTFYSLKVARVEPETRDAVTITFAIPQALQAEYCFRPGQHLTLKARLGGEELRRCYSICRSRTPGEISVAVKAIDGGRFSRYAQQDIQQGMELEVMVPQGHFGYQPQAERQGEYLAIAAGSGITPMMAIISATLATEPQSRFTLIYGNRSSHSMMFRQALADLKDRYPQRLQVIHLFSQESMDSDLLQGRIDGDKLRQLADHLLDFSRFDEAFICGPAAMMDEAEATLRELGVAEKSIHLERFNTPGGNVKRVAGVQAEGRTVTIRQDGRDRLIALSAEDDSILDAALRQGADLPFACKGGVCATCKCKVLRGEVAMAANYSLEADELAAGYVLSCQSLPTSGDVVVDFDARGMA”, the “soluble on expression in E. coli” value was “not soluble”.

Consider “MSEVVKKFMYLNRKAPYGTIYAWEALEVVLIGAAFDQDVCVLFLDDGVYQLTRGQDTKGIGMKNFSPTYRTLGDYEVRRIYVDRDSLEARGLTQDDLVEIAFEDMETEEEFDNIVEVIDSARVSELMNESDAVFSF”, for which the “soluble on expression in E. coli” value is given as “soluble”.

On to “MSLTPPLAPKTVAALHRLGIRTLEELRQNGSVKAFLLLKASGLTLTKSTLWQLESLLDGTPPQEMSQAHKARLLAELKNHPPVAAFPPQEEMEHFMCEALRQAEQSSADGEIPVGAVIVSDGKIIASAHNTCIADCNVSRHAEINALAQAGREIQNYRLDGCDIYITLEPCAMCASALIQARIRRVIYGAAEPKTGAAGSIVNLFADKRLNTHTAIRGGILQEECRAVLSRFFQNKREGHHHHHH”, for which the “soluble on expression in E. coli” value is listed as “soluble”.

On to “GMTYELSTDREFDLIAIGRACIDLNAVEYNRPMEETMTFSKYVGGSPANIVIGSSKLGLKAGFIGKIADDQHGRFIESYMRGVGVDTSNLVVDQEGHKTGLAFTEIKSPEECSILMYRQDVADLYLSPEEVNEAYIRRSKLLLVSGTALSKSPSREAVLKAIRLAKRNDVKVVFELDYRPYSWETPEETAVYYSLVAEQSDIVIGTREEFDVLENRTEKGDNDETIRYLFKHSPELIVIKHGVEGSFAYTKAGEAYRGYAYKTKVLKTFGAGDSYASAFLYALISGKGIETALKYGSASASIVVSKHSSSDAMPSVEEIEALIEKDETITIA”, for which the “soluble on expression in E. coli” value is on record as “soluble”.

Regarding “MTIAQQERPVAASPYRFEAEMTSGLERVAAHHHDLTLTSVFQPIFSLSHMRAVGYEALLRAHDALDRPVSPLDVFGEAARHGEAAQVDRLAQALHLENFARFGAEREWLFLNVHPGVLTDPFQAAALFANLKRLEIPPRRIVLEVLEQRADDIERLADAVREFREQGFLIALDDFGAGHSNIERIWQLNPDIVKLDRIMLSHAQHRAGLTAILHGLVTLLHEAGKLVLIEGIETEHEAQIALACDADFVQGHFFGRP”, the “soluble on expression in E. coli” value is listed as “not soluble”.

On to “MGHHHHHHSHMDPDTFTFNFNNDPLVLRRRQTYLCYEVERLDNGWMVLMDQHMGFLCNEAKNLLCGFYGRHADWRFLDLVPSLQLDPAQIYRVTWFISWSPCFSWGCAGEVRAFLQENTHVRLPIFAARIYDYDPLYKEALQMLRDAGAQVSIMTYDEFEYCWDTFVYRQGCPFQPWDGLEEHSQALSGRLRAILQNQGN”, for which the “soluble on expression in E. coli” value is “not soluble”.

“MRIEQELKLGFKDVLFRPKRSTLKSRSQVNLTREFTFKHSGRQWSGVPVIAANMDSVGSFAMAKALAEHGVMTAVHKHYTVADWAEFVKSADKATLNNVMVSTGTSEADFQKTKDVMALSDELIFICIDIANGYSEHLVEYVQRVRAAFPDKVISAGNVVTGDMVEELILAGADIVKVGIGPGSVCTTRVKTGVGYPQLSAIIECADAAHGLGGRIIGDGGCTCPGDVAKAFGGGADFVMLGGMLAGHEEAGGELIVKDGETFMKFYGMSSKSAMDKHSGGVAGYRAAEGKTVLLPYRGSVHGTIQDILGGVRSTCTYVGAAELRELTKRTTFIRVQEQENNVYGRE”: the “soluble on expression in E. coli” value is listed as “soluble”.

On to “MGSDKIHHHHHHMRNPEVIVIGSGIGGLCCGGLLAKAGKRVLILEAHSKPGGAAHGFEKNGYKFESGPSLWSGIGSWPTTNPLGQVLKALNQKVDLIKYQDWNVQIPEGDYTIGVGDRRFLDQINSISGKDAMKEWENFIQVIKPIGAAANAIPLLALNQNKETVLQLLKRSKTLLTHLKSFKYLGGAFGNLVDDHLKDPFLRNWVELLCFLISGLSKDETNAAAMATLFDDWFNPDAYLEYPKGGSESIVKALLDGIYSFGGDLQLNSKVSQIIIKRNKAIGIELKNGERIFADHIVSNADIWNTIELIPKEISQKWRGKRSKTPKCKSFLHLHLGFNAEGLKDIPLHSIWVNDWSKGITAERNVVVLSIPSALDPTMSPPNKHILHGYTPANEPWERWEGLKIGSKEYERTKEERCSVFWEPIKKLVPDIEERIEVKMLGTPLTHQRFLNTKNGSYGPALSAAEGLFPGNKTPIKNLLLCGSSTFPGIGIPPVAASGAMAANTILGSKFQRDLIEELGL”, for which the “soluble on expression in E. coli” value is given as “not soluble”.

For “MGSDKIHHHHHHMKEIALLAIARYGDLIQTTPLVRALRRAHPGARITAIVEDRFCGILPLLPGIDRTIVLNKQDIAWDIATGDSPLVPYLKMDEFVRKLEEGSYDLLVNITCSRLSAFFASCVTSRRRTGISADEAGERNIVTLWGQYIFSWFNDNIRKYNAINLVDIFTRLGEVPPDGRRVELVATEKGERFADDFLDRHGLRGQRLVGLQLGASEATRIWPAEHFARISDRLQRELGVRTILFGAPVEKHLAGQAMAAMEMPAVDAVGETGIEELYSLVGRCAALVSNDTGTMHFAAAAGVPAVMLCIGPAFFRCTGPYGEGHLALQPDLPCSPCPYSLVCADPVCRDTISPEAVFSACRMILAGADGLGNADFSGVRVYRSSFAPDGYLTWDGLFNVDAWEEEQVKRRESAWKGCFDGSTKGCGAPGDETLRAFWELTGRGIEATEAIIRAARKKPLPVDEIRRLGEKESAIEAEVKLMGYRHEPLAPVTEFLTLMRENITGEELGRIARETRSLYETGRCLAALL”, the “soluble on expression in E. coli” value was “not soluble”.

Turning to “MTTKEKVKALWQLCFDDNEEFVEMYFRLRYKNEINIAIESGDEIVSALQMIPYPMTFCGDTVQTSYISGACTHPDFRGNGVMRELLSQAFAKMLRNGTYFSTLIPAEPWLFDYYTRMGYASVFQYSVKEITVPEFIPSKEITVTSEIGCQKEVYEYLNSKLSGRTCCIQHSFEDFQVVMADLILSDGILVTARSENQINGLAIVYRRDKQLIISELFAETKDAEHSLLHHIKQFTGCRHMTQLLPPEKEQTQYPLGMARIINAKEVLQLYASAFPEDEMQLEVSDKQLSVNNGYYYLCNGKCMYSTERLPGAHIPMNISELTGRIFQALRPYMSLMLNK”, the “soluble on expression in E. coli” value was “not soluble”.

As to “MRVLGIETSCDETGIAVYDDKAGLLANQLYSQVKLHADYGGVVPELASRDHVRKTVPLIQAALKEANLSAKDIDAVAYTAGPGLVGALLVGATIGRALAFAWGVPAVPVHHMEGHLLAPMLEENAPEFPFVALLVSGGHTQLISVTGIGEYLLLGESVDDAAGEAFDKTAKLLGLDYPGGPMLSRMAQQGTVGRFTFPRPMTDRPGLDFSFSGLKTFAANTIRANGDDDQTRADIARAFEDAVVDTLAIKSKRALDQTGFKRLVIAGGVSANQTLRLKLADMMQKRGGEVFYARPEFCTDNGAMIAYAGMVRLRSNLNSELSVSVRPRWPLSELPKV”, the “soluble on expression in E. coli” value was “not soluble”.
